Test results: the supplement of paper PMC10065799, “High-throughput profiling of sequence recognition by tyrosine kinases and SH2 domains using bacterial peptide display” (eLife, 2023)

Tests used:
[1] = target: FGFR3 (UniProt P22607); experiment: phosphorylation enrichment, bacterial display (enrichment ratio); higher = better substrate or ligand; peptides without Tyr show the background
[2] = test system: c-Abl (mouse); experiment: as above
[3] = test system: Fer (mouse); experiment: as above
[4] = target: EPHB1 (UniProt P54762); experiment: as above
[5] = target: Fes (UniProt P07332); experiment: as above
[6] = target: Hck (UniProt P08631); experiment: as above
[7] = test system: AncSZ; experiment: as above
[8] = target: EPHB2 (UniProt P29323); experiment: as above
[9] = target: Fyn (UniProt P06241); experiment: as above
[10] = test system: c-Src; experiment: as above
[11] = target: Jak2 (UniProt O60674); experiment: as above
[12] = target: MERTK (UniProt Q12866); experiment: as above
[13] = target: FGFR1 (UniProt P11362); experiment: as above
[14] = target: c-Src SH2; experiment: SH2 binding enrichment of the phosphorylated peptide, bacterial display (enrichment ratio); higher = better substrate or ligand; peptides without Tyr show the background
[15] = target: SHP2-C SH2; experiment: as above
[16] = target: Grb2 SH2 (UniProt P62993); experiment: as above
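Wherever SH2 binding enrichment of the phosphorylated peptide, bacterial display is given: peptide library displayed on the E. coli surface as eCPX fusions, selected cells deep-sequenced, score is each peptide's frequency after selection divided by its frequency in the input.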
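Wherever phosphorylation enrichment, bacterial display is given: 11-residue human phosphosite peptides and single-mutation variants displayed on the E. coli surface, counted by deep sequencing, each peptide's frequency after selection divided by its frequency in the unselected input library; frequency after pTyr selection over input frequency; kinase dosed for 20-30% of maximal phosphorylation in three min.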

Chain of Hck (P08631 whole entry, looked up): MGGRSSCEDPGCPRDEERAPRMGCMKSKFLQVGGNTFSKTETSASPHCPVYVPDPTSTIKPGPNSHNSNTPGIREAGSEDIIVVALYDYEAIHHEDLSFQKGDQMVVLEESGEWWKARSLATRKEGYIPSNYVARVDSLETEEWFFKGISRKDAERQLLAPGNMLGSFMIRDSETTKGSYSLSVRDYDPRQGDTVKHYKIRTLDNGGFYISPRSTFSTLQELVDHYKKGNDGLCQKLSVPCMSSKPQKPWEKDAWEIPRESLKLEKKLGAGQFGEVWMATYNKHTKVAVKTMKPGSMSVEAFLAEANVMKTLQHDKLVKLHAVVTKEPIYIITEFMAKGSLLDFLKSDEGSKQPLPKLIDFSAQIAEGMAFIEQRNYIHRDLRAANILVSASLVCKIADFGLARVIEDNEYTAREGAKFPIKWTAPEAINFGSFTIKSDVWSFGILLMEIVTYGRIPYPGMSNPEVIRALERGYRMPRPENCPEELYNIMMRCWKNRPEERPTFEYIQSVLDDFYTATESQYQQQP
Chain of EPHB1 (P54762 whole entry, looked up): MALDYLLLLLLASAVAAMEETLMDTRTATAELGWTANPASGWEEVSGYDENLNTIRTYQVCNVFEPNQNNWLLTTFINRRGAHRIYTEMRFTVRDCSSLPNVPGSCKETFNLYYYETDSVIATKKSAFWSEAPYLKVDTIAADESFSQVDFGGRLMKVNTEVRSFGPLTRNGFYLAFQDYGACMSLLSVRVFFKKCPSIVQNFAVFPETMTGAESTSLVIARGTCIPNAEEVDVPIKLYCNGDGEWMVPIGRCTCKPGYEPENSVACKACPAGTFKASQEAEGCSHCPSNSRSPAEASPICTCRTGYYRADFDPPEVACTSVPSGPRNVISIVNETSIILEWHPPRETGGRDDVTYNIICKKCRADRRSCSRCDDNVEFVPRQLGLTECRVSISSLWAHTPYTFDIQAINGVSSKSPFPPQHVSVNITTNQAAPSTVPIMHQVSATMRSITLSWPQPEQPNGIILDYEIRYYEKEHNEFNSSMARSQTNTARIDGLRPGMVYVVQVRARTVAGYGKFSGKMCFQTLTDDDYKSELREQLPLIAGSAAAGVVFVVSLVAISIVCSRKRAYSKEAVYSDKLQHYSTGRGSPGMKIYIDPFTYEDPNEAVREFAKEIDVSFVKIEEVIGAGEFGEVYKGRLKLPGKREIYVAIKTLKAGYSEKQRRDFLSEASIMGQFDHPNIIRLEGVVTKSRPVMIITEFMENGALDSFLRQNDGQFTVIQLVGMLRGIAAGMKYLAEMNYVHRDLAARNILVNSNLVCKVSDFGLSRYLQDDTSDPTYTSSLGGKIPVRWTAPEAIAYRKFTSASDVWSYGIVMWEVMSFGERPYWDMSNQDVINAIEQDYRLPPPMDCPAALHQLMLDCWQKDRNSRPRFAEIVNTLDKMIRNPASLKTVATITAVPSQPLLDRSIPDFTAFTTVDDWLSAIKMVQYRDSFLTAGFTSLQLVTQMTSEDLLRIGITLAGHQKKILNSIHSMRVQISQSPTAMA
Chain of FGFR1 (P11362 whole entry, looked up): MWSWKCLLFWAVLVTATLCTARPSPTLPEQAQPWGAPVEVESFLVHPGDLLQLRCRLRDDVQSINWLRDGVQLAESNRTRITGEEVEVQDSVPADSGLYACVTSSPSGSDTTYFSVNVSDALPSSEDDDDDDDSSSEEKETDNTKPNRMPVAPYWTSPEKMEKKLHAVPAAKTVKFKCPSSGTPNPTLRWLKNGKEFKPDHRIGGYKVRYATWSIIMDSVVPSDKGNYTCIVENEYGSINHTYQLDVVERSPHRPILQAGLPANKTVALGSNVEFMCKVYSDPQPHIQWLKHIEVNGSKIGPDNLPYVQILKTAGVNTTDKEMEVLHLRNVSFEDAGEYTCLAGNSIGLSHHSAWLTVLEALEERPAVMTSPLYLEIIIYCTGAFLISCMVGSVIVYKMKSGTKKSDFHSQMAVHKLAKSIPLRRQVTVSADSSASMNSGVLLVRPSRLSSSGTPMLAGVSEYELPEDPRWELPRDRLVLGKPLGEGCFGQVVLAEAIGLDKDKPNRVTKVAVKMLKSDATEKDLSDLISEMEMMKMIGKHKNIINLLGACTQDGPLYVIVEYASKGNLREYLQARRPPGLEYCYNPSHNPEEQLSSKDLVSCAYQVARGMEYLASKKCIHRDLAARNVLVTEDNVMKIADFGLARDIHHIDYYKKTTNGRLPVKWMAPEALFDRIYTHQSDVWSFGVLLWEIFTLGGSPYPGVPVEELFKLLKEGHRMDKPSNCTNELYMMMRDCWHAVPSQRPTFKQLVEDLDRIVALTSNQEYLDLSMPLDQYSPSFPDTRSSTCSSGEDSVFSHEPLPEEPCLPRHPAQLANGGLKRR
Chain of Fyn (P06241 whole entry, looked up): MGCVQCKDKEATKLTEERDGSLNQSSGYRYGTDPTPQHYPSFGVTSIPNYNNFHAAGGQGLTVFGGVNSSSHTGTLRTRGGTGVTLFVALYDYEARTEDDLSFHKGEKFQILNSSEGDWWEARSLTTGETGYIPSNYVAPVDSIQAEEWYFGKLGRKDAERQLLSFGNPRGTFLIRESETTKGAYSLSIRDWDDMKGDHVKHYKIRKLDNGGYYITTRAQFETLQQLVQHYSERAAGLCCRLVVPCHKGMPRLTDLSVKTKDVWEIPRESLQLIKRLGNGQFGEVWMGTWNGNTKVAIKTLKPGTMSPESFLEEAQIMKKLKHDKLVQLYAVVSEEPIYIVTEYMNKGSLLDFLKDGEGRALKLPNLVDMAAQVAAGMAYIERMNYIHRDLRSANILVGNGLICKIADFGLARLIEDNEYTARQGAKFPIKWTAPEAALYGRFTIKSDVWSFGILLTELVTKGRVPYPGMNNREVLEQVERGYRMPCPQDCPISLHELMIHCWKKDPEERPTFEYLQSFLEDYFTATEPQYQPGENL
Chain of Fes (P07332 whole entry, looked up): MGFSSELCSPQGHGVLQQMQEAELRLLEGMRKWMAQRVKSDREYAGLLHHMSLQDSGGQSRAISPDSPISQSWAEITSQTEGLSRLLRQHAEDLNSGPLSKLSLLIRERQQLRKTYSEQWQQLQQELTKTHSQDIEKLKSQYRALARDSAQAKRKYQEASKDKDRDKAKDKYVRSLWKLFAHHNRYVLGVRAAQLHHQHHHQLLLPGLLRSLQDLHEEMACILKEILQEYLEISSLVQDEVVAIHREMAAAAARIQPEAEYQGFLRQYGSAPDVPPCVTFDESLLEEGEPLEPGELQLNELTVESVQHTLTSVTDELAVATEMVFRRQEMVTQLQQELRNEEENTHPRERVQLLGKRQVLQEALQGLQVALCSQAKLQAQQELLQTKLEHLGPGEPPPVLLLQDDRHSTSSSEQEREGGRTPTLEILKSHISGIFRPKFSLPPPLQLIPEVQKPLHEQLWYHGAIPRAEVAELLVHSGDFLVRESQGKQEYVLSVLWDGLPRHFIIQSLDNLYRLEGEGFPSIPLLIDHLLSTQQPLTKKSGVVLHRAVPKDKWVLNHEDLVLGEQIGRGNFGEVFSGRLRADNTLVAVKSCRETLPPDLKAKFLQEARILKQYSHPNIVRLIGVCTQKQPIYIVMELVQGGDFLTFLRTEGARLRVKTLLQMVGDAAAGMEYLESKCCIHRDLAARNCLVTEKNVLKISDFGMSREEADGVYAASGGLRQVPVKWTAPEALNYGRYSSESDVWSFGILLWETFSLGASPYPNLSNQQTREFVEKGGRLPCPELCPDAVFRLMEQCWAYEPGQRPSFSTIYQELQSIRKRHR
Chain of MERTK (Q12866 whole entry, looked up): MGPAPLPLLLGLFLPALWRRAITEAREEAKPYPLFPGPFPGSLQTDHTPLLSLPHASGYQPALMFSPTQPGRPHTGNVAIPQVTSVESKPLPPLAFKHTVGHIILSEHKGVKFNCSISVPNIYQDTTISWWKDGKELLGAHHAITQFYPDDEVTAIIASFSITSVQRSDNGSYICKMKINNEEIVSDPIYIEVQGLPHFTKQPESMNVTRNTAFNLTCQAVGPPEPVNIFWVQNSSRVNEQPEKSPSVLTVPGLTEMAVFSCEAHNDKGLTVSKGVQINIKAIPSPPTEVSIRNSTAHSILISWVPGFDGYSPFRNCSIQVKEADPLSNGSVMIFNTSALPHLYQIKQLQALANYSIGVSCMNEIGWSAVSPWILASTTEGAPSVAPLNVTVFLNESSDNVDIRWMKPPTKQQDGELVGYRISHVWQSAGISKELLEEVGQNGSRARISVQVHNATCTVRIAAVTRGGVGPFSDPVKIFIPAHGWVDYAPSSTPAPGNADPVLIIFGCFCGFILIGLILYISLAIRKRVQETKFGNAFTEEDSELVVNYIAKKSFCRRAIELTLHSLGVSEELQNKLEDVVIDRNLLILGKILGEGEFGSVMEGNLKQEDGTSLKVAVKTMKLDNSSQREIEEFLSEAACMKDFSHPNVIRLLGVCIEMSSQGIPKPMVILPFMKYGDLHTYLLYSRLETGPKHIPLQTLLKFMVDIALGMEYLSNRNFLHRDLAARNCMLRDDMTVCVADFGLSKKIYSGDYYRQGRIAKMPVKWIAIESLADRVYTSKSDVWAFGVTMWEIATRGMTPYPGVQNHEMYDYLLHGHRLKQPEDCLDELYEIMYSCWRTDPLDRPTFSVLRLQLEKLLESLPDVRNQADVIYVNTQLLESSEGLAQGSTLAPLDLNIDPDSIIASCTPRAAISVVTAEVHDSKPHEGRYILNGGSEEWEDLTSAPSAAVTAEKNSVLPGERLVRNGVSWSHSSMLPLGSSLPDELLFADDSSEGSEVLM
Chain of Grb2 SH2 (P62993 whole entry, looked up, the tested form may be a part): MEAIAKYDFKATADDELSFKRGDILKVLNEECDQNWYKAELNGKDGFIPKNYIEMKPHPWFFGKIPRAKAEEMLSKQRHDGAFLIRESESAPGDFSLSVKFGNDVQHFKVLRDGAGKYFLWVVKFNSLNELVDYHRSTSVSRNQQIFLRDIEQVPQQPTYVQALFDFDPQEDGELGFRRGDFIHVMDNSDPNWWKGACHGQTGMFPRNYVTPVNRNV

## ANSSFHSTRSA [NUMA1_Y1836_Y1836H]
[1]
  phosphorylation enrichment: 0.599
[2]
  phosphorylation enrichment: 0.616
[3]
  phosphorylation enrichment: 0.425
[4]
  phosphorylation enrichment: 0.436
[5]
  phosphorylation enrichment: 1.04
[6]
  phosphorylation enrichment: 0.551
[7]
  phosphorylation enrichment: 0.597
[8]
  phosphorylation enrichment: 0.51
[9]
  phosphorylation enrichment: 0.555
[10]
  phosphorylation enrichment: 0.602
[11]
  phosphorylation enrichment: 0.552
[12]
  phosphorylation enrichment: 0.496
[13]
  phosphorylation enrichment: 0.551
[14]
  SH2 binding enrichment: 0.528
[15]
  SH2 binding enrichment: 0.514
[16]
  SH2 binding enrichment: 0.749

## FGLQAYTEVKT [ALDH2_Y502_YF]
[1]
  phosphorylation enrichment: 0.783
[2]
  phosphorylation enrichment: 0.727
[3]
  phosphorylation enrichment: 0.608
[4]
  phosphorylation enrichment: 0.715
[5]
  phosphorylation enrichment: 1.34
[6]
  phosphorylation enrichment: 0.657
[7]
  phosphorylation enrichment: 1.03
[8]
  phosphorylation enrichment: 0.609
[9]
  phosphorylation enrichment: 0.498
[10]
  phosphorylation enrichment: 0.414
[11]
  phosphorylation enrichment: 1.13
[12]
  phosphorylation enrichment: 0.452
[13]
  phosphorylation enrichment: 0.584
[14]
  SH2 binding enrichment: 7.17
[15]
  SH2 binding enrichment: 2.52
[16]
  SH2 binding enrichment: 0.869

## YGGLRYGYGGL [KRTAP20-2_Y13_V17G]
[1]
  phosphorylation enrichment: 0.536
[2]
  phosphorylation enrichment: 0.559
[3]
  phosphorylation enrichment: 0.407
[4]
  phosphorylation enrichment: 0.418
[5]
  phosphorylation enrichment: 0.839
[6]
  phosphorylation enrichment: 1.42
[7]
  phosphorylation enrichment: 0.645
[8]
  phosphorylation enrichment: 0.427
[9]
  phosphorylation enrichment: 0.959
[10]
  phosphorylation enrichment: 0.76
[11]
  phosphorylation enrichment: 0.671
[12]
  phosphorylation enrichment: 0.381
[13]
  phosphorylation enrichment: 0.407
[14]
  SH2 binding enrichment: 0.725
[15]
  SH2 binding enrichment: 1.11
[16]
  SH2 binding enrichment: 0.955

## DLDLTYIYPNI [PTEN_Y27]
[1]
  phosphorylation enrichment: 2.61
[2]
  phosphorylation enrichment: 0.612
[3]
  phosphorylation enrichment: 0.424
[4]
  phosphorylation enrichment: 1.71
[5]
  phosphorylation enrichment: 0.871
[6]
  phosphorylation enrichment: 1.37
[7]
  phosphorylation enrichment: 3.91
[8]
  phosphorylation enrichment: 0.961
[9]
  phosphorylation enrichment: 2.84
[10]
  phosphorylation enrichment: 1.4
[11]
  phosphorylation enrichment: 1.57
[12]
  phosphorylation enrichment: 2.41
[13]
  phosphorylation enrichment: 3.8
[14]
  SH2 binding enrichment: 3.33
[15]
  SH2 binding enrichment: 0.962
[16]
  SH2 binding enrichment: 1.29

## LFEDRYLLGTS [ASS1_Y87_YF]
[1]
  phosphorylation enrichment: 2.45
[2]
  phosphorylation enrichment: 0.41
[3]
  phosphorylation enrichment: 1.12
[4]
  phosphorylation enrichment: 2.81
[5]
  phosphorylation enrichment: 1.8
[6]
  phosphorylation enrichment: 1.12
[7]
  phosphorylation enrichment: 2.21
[8]
  phosphorylation enrichment: 1.98
[9]
  phosphorylation enrichment: 1.29
[10]
  phosphorylation enrichment: 0.258
[11]
  phosphorylation enrichment: 0.885
[12]
  phosphorylation enrichment: 0.863
[13]
  phosphorylation enrichment: 1.26
[14]
  SH2 binding enrichment: 0.529
[15]
  SH2 binding enrichment: 0.537
[16]
  SH2 binding enrichment: 0.918

## LYNQDYPIHCV [GATM_Y227_S231C]
[1]
  phosphorylation enrichment: 1.64
[2]
  phosphorylation enrichment: 0.625
[3]
  phosphorylation enrichment: 0.632
[4]
  phosphorylation enrichment: 0.614
[5]
  phosphorylation enrichment: 0.954
[6]
  phosphorylation enrichment: 0.767
[7]
  phosphorylation enrichment: 0.811
[8]
  phosphorylation enrichment: 0.592
[9]
  phosphorylation enrichment: 0.639
[10]
  phosphorylation enrichment: 0.558
[11]
  phosphorylation enrichment: 0.754
[12]
  phosphorylation enrichment: 0.463
[13]
  phosphorylation enrichment: 2.66
[14]
  SH2 binding enrichment: 0.638
[15]
  SH2 binding enrichment: 0.689
[16]
  SH2 binding enrichment: 0.902

## TILEHYRRTHC [MYBPC3_Y1119_V1115I]
[1]
  phosphorylation enrichment: 0.619
[2]
  phosphorylation enrichment: 0.609
[3]
  phosphorylation enrichment: 0.439
[4]
  phosphorylation enrichment: 0.465
[5]
  phosphorylation enrichment: 1.08
[6]
  phosphorylation enrichment: 0.524
[7]
  phosphorylation enrichment: 0.809
[8]
  phosphorylation enrichment: 0.575
[9]
  phosphorylation enrichment: 0.378
[10]
  phosphorylation enrichment: 0.505
[11]
  phosphorylation enrichment: 0.781
[12]
  phosphorylation enrichment: 0.59
[13]
  phosphorylation enrichment: 0.511
[14]
  SH2 binding enrichment: 0.663
[15]
  SH2 binding enrichment: 0.939
[16]
  SH2 binding enrichment: 0.874

## KLVRLYAVVTR [LYN_Y306]
[1]
  phosphorylation enrichment: 0.794
[2]
  phosphorylation enrichment: 0.971
[3]
  phosphorylation enrichment: 0.474
[4]
  phosphorylation enrichment: 0.799
[5]
  phosphorylation enrichment: 1.14
[6]
  phosphorylation enrichment: 0.49
[7]
  phosphorylation enrichment: 1.35
[8]
  phosphorylation enrichment: 0.633
[9]
  phosphorylation enrichment: 0.402
[10]
  phosphorylation enrichment: 0.611
[11]
  phosphorylation enrichment: 1.15
[12]
  phosphorylation enrichment: 0.497
[13]
  phosphorylation enrichment: 0.483
[14]
  SH2 binding enrichment: 0.869
[15]
  SH2 binding enrichment: 2.41
[16]
  SH2 binding enrichment: 1.1

## TINPIYEHVGY [CHN1_Y143]
[1]
  phosphorylation enrichment: 1.06
[2]
  phosphorylation enrichment: 5.77
[3]
  phosphorylation enrichment: 22.4
[4]
  phosphorylation enrichment: 25.6
[5]
  phosphorylation enrichment: 8.63
[6]
  phosphorylation enrichment: 13.6
[7]
  phosphorylation enrichment: 1.15
[8]
  phosphorylation enrichment: 26.2
[9]
  phosphorylation enrichment: 14.7
[10]
  phosphorylation enrichment: 8.55
[11]
  phosphorylation enrichment: 0.578
[12]
  phosphorylation enrichment: 12.2
[13]
  phosphorylation enrichment: 1.01
[14]
  SH2 binding enrichment: 0.574
[15]
  SH2 binding enrichment: 0.582
[16]
  SH2 binding enrichment: 0.762

## GARGRYIMGGP [TNK1_Y277_V278I]
[1]
  phosphorylation enrichment: 0.4
[2]
  phosphorylation enrichment: 0.512
[3]
  phosphorylation enrichment: 0.4
[4]
  phosphorylation enrichment: 0.39
[5]
  phosphorylation enrichment: 0.547
[6]
  phosphorylation enrichment: 0.428
[7]
  phosphorylation enrichment: 0.433
[8]
  phosphorylation enrichment: 0.462
[9]
  phosphorylation enrichment: 0.433
[10]
  phosphorylation enrichment: 0.522
[11]
  phosphorylation enrichment: 0.531
[12]
  phosphorylation enrichment: 0.468
[13]
  phosphorylation enrichment: 0.789
[14]
  SH2 binding enrichment: 0.606
[15]
  SH2 binding enrichment: 0.674
[16]
  SH2 binding enrichment: 0.811

## THQNSYQPGRK [CEFIP_Y210]
[1]
  phosphorylation enrichment: 0.34
[2]
  phosphorylation enrichment: 0.422
[3]
  phosphorylation enrichment: 0.303
[4]
  phosphorylation enrichment: 0.233
[5]
  phosphorylation enrichment: 0.436
[6]
  phosphorylation enrichment: 0.375
[7]
  phosphorylation enrichment: 0.561
[8]
  phosphorylation enrichment: 0.366
[9]
  phosphorylation enrichment: 0.36
[10]
  phosphorylation enrichment: 0.299
[11]
  phosphorylation enrichment: 0.415
[12]
  phosphorylation enrichment: 0.34
[13]
  phosphorylation enrichment: 0.479
[14]
  SH2 binding enrichment: 0.673
[15]
  SH2 binding enrichment: 0.98
[16]
  SH2 binding enrichment: 0.903

## ITRDEYPSNPM [CEMIP2_Y1015]
[1]
  phosphorylation enrichment: 0.467
[2]
  phosphorylation enrichment: 0.414
[3]
  phosphorylation enrichment: 0.344
[4]
  phosphorylation enrichment: 0.413
[5]
  phosphorylation enrichment: 0.589
[6]
  phosphorylation enrichment: 0.352
[7]
  phosphorylation enrichment: 0.688
[8]
  phosphorylation enrichment: 0.369
[9]
  phosphorylation enrichment: 0.413
[10]
  phosphorylation enrichment: 0.345
[11]
  phosphorylation enrichment: 0.497
[12]
  phosphorylation enrichment: 0.329
[13]
  phosphorylation enrichment: 0.426
[14]
  SH2 binding enrichment: 0.475
[15]
  SH2 binding enrichment: 0.629
[16]
  SH2 binding enrichment: 0.717

## IKNFKYGIEEH [GJA1_Y137_K134N]
[1]
  phosphorylation enrichment: 0.549
[2]
  phosphorylation enrichment: 0.38
[3]
  phosphorylation enrichment: 0.311
[4]
  phosphorylation enrichment: 0.351
[5]
  phosphorylation enrichment: 0.715
[6]
  phosphorylation enrichment: 0.414
[7]
  phosphorylation enrichment: 0.621
[8]
  phosphorylation enrichment: 0.508
[9]
  phosphorylation enrichment: 0.335
[10]
  phosphorylation enrichment: 0.368
[11]
  phosphorylation enrichment: 0.682
[12]
  phosphorylation enrichment: 0.383
[13]
  phosphorylation enrichment: 0.388
[14]
  SH2 binding enrichment: 0.416
[15]
  SH2 binding enrichment: 0.456
[16]
  SH2 binding enrichment: 0.865

## TEDELYQLSLQ [RASGRP2_Y378]
[1]
  phosphorylation enrichment: 0.759
[2]
  phosphorylation enrichment: 0.928
[3]
  phosphorylation enrichment: 2.94
[4]
  phosphorylation enrichment: 0.717
[5]
  phosphorylation enrichment: 1.27
[6]
  phosphorylation enrichment: 0.896
[7]
  phosphorylation enrichment: 1.9
[8]
  phosphorylation enrichment: 0.677
[9]
  phosphorylation enrichment: 0.93
[10]
  phosphorylation enrichment: 1.33
[11]
  phosphorylation enrichment: 1.04
[12]
  phosphorylation enrichment: 0.542
[13]
  phosphorylation enrichment: 0.476
[14]
  SH2 binding enrichment: 0.412
[15]
  SH2 binding enrichment: 0.563
[16]
  SH2 binding enrichment: 0.661

## MSRNLYSGDCF [DDR2_Y736_Y740C_YF]
[1]
  phosphorylation enrichment: 0.968
[2]
  phosphorylation enrichment: 0.739
[3]
  phosphorylation enrichment: 0.911
[4]
  phosphorylation enrichment: 2.02
[5]
  phosphorylation enrichment: 1
[6]
  phosphorylation enrichment: 2.12
[7]
  phosphorylation enrichment: 1.01
[8]
  phosphorylation enrichment: 1.97
[9]
  phosphorylation enrichment: 1.71
[10]
  phosphorylation enrichment: 1.93
[11]
  phosphorylation enrichment: 0.903
[12]
  phosphorylation enrichment: 5.87
[13]
  phosphorylation enrichment: 0.793
[14]
  SH2 binding enrichment: 0.929
[15]
  SH2 binding enrichment: 0.595
[16]
  SH2 binding enrichment: 0.837

## VREIRYQGGNR [VWF_Y1570]
[1]
  phosphorylation enrichment: 0.382
[2]
  phosphorylation enrichment: 0.615
[3]
  phosphorylation enrichment: 0.402
[4]
  phosphorylation enrichment: 0.329
[5]
  phosphorylation enrichment: 0.653
[6]
  phosphorylation enrichment: 0.42
[7]
  phosphorylation enrichment: 0.597
[8]
  phosphorylation enrichment: 0.511
[9]
  phosphorylation enrichment: 0.421
[10]
  phosphorylation enrichment: 0.495
[11]
  phosphorylation enrichment: 0.968
[12]
  phosphorylation enrichment: 0.522
[13]
  phosphorylation enrichment: 0.378
[14]
  SH2 binding enrichment: 0.391
[15]
  SH2 binding enrichment: 0.476
[16]
  SH2 binding enrichment: 0.539

## ARLEYCENEKK [IRS1_Y47_Y47C]
[1]
  phosphorylation enrichment: 0.702
[2]
  phosphorylation enrichment: 0.486
[3]
  phosphorylation enrichment: 0.464
[4]
  phosphorylation enrichment: 0.552
[5]
  phosphorylation enrichment: 0.815
[6]
  phosphorylation enrichment: 0.421
[7]
  phosphorylation enrichment: 0.795
[8]
  phosphorylation enrichment: 0.475
[9]
  phosphorylation enrichment: 0.567
[10]
  phosphorylation enrichment: 0.486
[11]
  phosphorylation enrichment: 0.687
[12]
  phosphorylation enrichment: 0.449
[13]
  phosphorylation enrichment: 0.786
[14]
  SH2 binding enrichment: 0.49
[15]
  SH2 binding enrichment: 0.766
[16]
  SH2 binding enrichment: 0.594
